Reference: paper PMC3143260 (2012)
Read-outs that look alike come from different tables or passages of the source.

T1: RPP21 (Pyrococcus furiosus, UniProt Q8U0H6)
T1 chain: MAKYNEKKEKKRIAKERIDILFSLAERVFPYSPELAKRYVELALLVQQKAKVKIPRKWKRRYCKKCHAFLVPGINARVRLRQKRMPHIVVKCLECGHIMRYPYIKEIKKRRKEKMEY


How the values were obtained:
[1] = target: T1, RPP21; assay: ITC
[2] = target: T1, RPP21; assay: ITC

Kd [1]	Kd [2]	Binder
230 nM	–	RPP29 18-127 (protein) GSYQEIIGRTWIFRGAHRGRVNKKNIVWHELIGLKVRVVNSTHPGYVGIEGYVIDETRNMLVIAGENKVWKVPKDVCIFEFETWDGTKIKISGEKLVGRPEMRLKKRWRK
250 nM	250 nM	RPP29 1-127 (protein) MWRNSEERENRTSGRSQGSYQEIIGRTWIFRGAHRGRVNKKNIVWHELIGLKVRVVNSTHPGYVGIEGYVIDETRNMLVIAGENKVWKVPKDVCIFEFETWDGTKIKISGEKLVGRPEMRLKKRWRK
